Earlier results in publication PMC8087844.

Molecular target: IL2R alpha (CD25) (Homo sapiens) (UniProt P01589)
Chain of UniProt P01589 (P01589 22-240): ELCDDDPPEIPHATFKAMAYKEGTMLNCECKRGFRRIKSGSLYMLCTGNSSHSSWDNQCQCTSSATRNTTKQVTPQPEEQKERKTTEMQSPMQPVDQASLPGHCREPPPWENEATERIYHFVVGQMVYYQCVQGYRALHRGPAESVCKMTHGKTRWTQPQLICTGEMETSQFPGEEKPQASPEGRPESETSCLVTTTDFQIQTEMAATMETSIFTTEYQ

Substance: Daclizumab
- Kd: 0.3 nM
